Test results as given in patent US20220002427A1 (ENGMAB SARL, published 2022).
Values joined by “and” are separate entries in the source; they are usually repeats but may differ in a detail not shown here. Identical values can stand only once.

Legend:
human BCMA on cells [1] = biological target: T1, human BCMA on cells (human, UniProt Q02223 1-184); test: cell-based or functional assay
T1 sequence (looked up): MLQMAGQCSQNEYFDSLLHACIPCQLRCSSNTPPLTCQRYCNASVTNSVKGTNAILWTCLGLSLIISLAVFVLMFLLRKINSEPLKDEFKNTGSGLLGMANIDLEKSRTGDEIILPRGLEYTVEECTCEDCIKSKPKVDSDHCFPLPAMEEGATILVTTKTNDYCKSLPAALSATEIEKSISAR

human BCMA on cells [2] = biological target: T1, human BCMA on cells; test: cell-based or functional assay; remark: listed apart in the source
human BCMA on cells [3] = biological target: T1, human BCMA on cells; test: cell-based or functional assay; remark: listed apart in the source
human BCMA on cells [4] = biological target: T1, human BCMA on cells; test: cell-based or functional assay; remark: listed apart in the source
human BCMA on cells [5] = biological target: T1, human BCMA on cells; test: cell-based or functional assay; remark: listed apart in the source
human BCMA on cells [6] = biological target: T1, human BCMA on cells; test: cell-based or functional assay; remark: listed apart in the source
human BCMA on cells [7] = biological target: T1, human BCMA on cells; test: flow cytometry on H929 multiple myeloma cells, PE anti-human Fc F(ab')2 detection; estimated EC50
Experimental: (§1) Briefly, cultured cells are harvested, counted and cell viability was evaluated using ViCell. Viable cells are then adjusted to 2×10⁶ cells per ml in BSA-containing FACS Stain Buffer (BD Biosciences). 100 μl of this cell suspension were further aliquoted per well into a round-bottom 96-well plate and incubated with 30 μl of the anti-BCMA antibodies or corresponding IgG control for 30 min at 4° c. All Anti-BCMA/anti-CD3 TCB antibodies (and TCB controls) were titrated and analyzed in final concentration range between 1-300 nM. Cells were then centrifuged (5 min, 350×g), washed with 120 μl/well FACS Stain Buffer (BD Biosciences), resuspended and incubated for an additional 30 min at 4° C. with fluorochrome-conjugated PE-conjugated AffiniPure F(ab′)2 Fragment goat anti-human IgG Fc Fragment Specific (Jackson Immuno Research Lab; 109-116-170). Cells were then washed twice with Stain Buffer (BD Biosciences), fixed using 100 ul BD Fixation buffer per well (#BD Biosciences, 554655) at 4° C. for 20 min, resuspended in 120 μl FACS buffer and analyzed using BD FACS CantoII.

human BCMA on cells [8] = biological target: T1, human BCMA on cells; test: flow cytometry on L363 multiple myeloma cells, PE anti-human Fc F(ab')2 detection; estimated EC50
Experimental: as §1

human BCMA on cells [9] = biological target: T1, human BCMA on cells; test: flow cytometry on RPMI-8226 multiple myeloma cells, PE anti-human Fc F(ab')2 detection; asterisk: extrapolated by Prism
Experimental: as §1

B1: 83A10-TCBcv (bispecific antibody, human IgG1, kappa, L234A L235A)
heavy 1: not shown
heavy 2: not shown
light 1: not shown
light 2: EVQLLESGGGLVQPGGSLRLSCAASGFTFSTYAMNWVRQAPGKGLEWVSRIRSKYNNYATYYADSVKGRFTISRDDSKNTLYLQMNSLRAEDTAVYYCVRHGNFGNSYVSWFAYWGQGTLVTVSSASVAAPSVFIFPPSDEQLKSGTASVVCLLNNFYPREAKVQWKVDNALQSGNSQESVTEQDSKDSTYSLSSTLTLSKADYEKHKVYACEVTHQGLSSPVTKSFNRGEC
notes: also called anti-BCMA/anti-CD3 T cell bispecific antibody 83A10-TCBcv
EC50 of Granzyme B secretion, PBMC plus RPMI-8226 cells (CBA) (human BCMA on cells [1]): 0.34 nM
EC50 of IL-10 secretion, PBMC plus RPMI-8226 cells (CBA) (human BCMA on cells [1]): 0.3 nM
EC50 of TNF-α secretion, PBMC plus RPMI-8226 cells (CBA) (human BCMA on cells [1]): 0.52 nM
EC50 of redirected T-cell killing of H929 cells (LDH release), Donor 1 (human BCMA on cells [2]): 0.0039 nM
EC50 of redirected T-cell killing of H929 cells (LDH release), Donor 3 (human BCMA on cells [2]): 0.0085 nM
EC50 of redirected T-cell killing of H929 cells (LDH release), Donor 4 (human BCMA on cells [2]): 0.005 nM
EC50 of redirected T-cell killing of H929 cells (LDH release), Donor 5 (human BCMA on cells [2]): 0.0043 nM
EC50 of redirected T-cell killing of H929 cells (LDH release), Donor 6 (human BCMA on cells [2]): 0.0015 nM
EC50 of redirected T-cell killing of L363 cells (LDH release), Donor 1 (human BCMA on cells [3]): 0.0168 nM
EC50 of redirected T-cell killing of L363 cells (LDH release), Donor 2 (human BCMA on cells [3]): 0.0478 nM
EC50 of redirected T-cell killing of L363 cells (LDH release), Donor 3 (human BCMA on cells [3]): 0.0284 nM
EC50 of redirected T-cell killing of L363 cells (LDH release), Donor 4 (human BCMA on cells [3]): 0.0126 nM
EC50 of redirected T-cell killing of L363 cells (LDH release), Donor 5 (human BCMA on cells [3]): 0.039 nM
EC50 of redirected T-cell killing of RPMI-8226 cells (LDH release), Donor 2 (human BCMA on cells [4]): 0.621 nM
EC50 of redirected T-cell killing of RPMI-8226 cells (LDH release), Donor 3 (human BCMA on cells [4]): 0.229 nM
EC50 of redirected T-cell killing of RPMI-8226 cells (LDH release), Donor 4 (human BCMA on cells [4]): 0.035 nM
EC50 of redirected T-cell killing of RPMI-8226 cells (LDH release), Donor 5 (human BCMA on cells [4]): 0.0649 nM
Annexin-V positive JJN-3 cells (%) at 0.1 pM TCB, Experiment 2 (human BCMA on cells [5]): 13.1%
Annexin-V positive JJN-3 cells (%) at 1 pM TCB, Experiment 1 (human BCMA on cells [5]): 11.4%
Annexin-V positive JJN-3 cells (%) at 1 pM TCB, Experiment 2 (human BCMA on cells [5]): 14.3%
Annexin-V positive JJN-3 cells (%) at 10 pM TCB, Experiment 1 (human BCMA on cells [5]): 11.1%
Annexin-V positive JJN-3 cells (%) at 10 pM TCB, Experiment 2 (human BCMA on cells [5]): 15.9%
Annexin-V positive JJN-3 cells (%) at 100 pM TCB, Experiment 1 (human BCMA on cells [5]): 9.12%
Annexin-V positive JJN-3 cells (%) at 100 pM TCB, Experiment 2 (human BCMA on cells [5]): 16.5%
Annexin-V positive JJN-3 cells (%) at 1000 pM TCB, Experiment 1 (human BCMA on cells [5]): 10.2%
Annexin-V positive JJN-3 cells (%) at 1000 pM TCB, Experiment 2 (human BCMA on cells [5]): 17.5%
Annexin-V positive JJN-3 cells (%) at 10000 pM TCB, Experiment 1 (human BCMA on cells [5]): 16.8%
Annexin-V positive JJN-3 cells (%) at 10000 pM TCB, Experiment 2 (human BCMA on cells [5]): 22.9%
Lysis of JJN-3 cells (%) at 0.1 pM TCB, Experiment 2 (human BCMA on cells [6]): 22.3%
Lysis of JJN-3 cells (%) at 1 pM TCB, Experiment 1 (human BCMA on cells [6]): 24.4%
Lysis of JJN-3 cells (%) at 1 pM TCB, Experiment 2 (human BCMA on cells [6]): -1.88%
Lysis of JJN-3 cells (%) at 10 pM TCB, Experiment 1 (human BCMA on cells [6]): 41.9%
Lysis of JJN-3 cells (%) at 10 pM TCB, Experiment 2 (human BCMA on cells [6]): 39.6%
Lysis of JJN-3 cells (%) at 100 pM TCB, Experiment 1 (human BCMA on cells [6]): 18.4%
Lysis of JJN-3 cells (%) at 100 pM TCB, Experiment 2 (human BCMA on cells [6]): 20.1%
Lysis of JJN-3 cells (%) at 1000 pM TCB, Experiment 1 (human BCMA on cells [6]): 26.7%
Lysis of JJN-3 cells (%) at 1000 pM TCB, Experiment 2 (human BCMA on cells [6]): 25.3%
Lysis of JJN-3 cells (%) at 10000 pM TCB, Experiment 1 (human BCMA on cells [6]): 70.3%
Lysis of JJN-3 cells (%) at 10000 pM TCB, Experiment 2 (human BCMA on cells [6]): 51.2%
EC50 (human BCMA on cells [7]): 12 nM and 1.73 µg/mL
EC50 (human BCMA on cells [8]): 17.4 nM and 2.51 µg/mL
EC50 (human BCMA on cells [9]): > 300 nM and ~27200 µg/mL
